# Experimental data taken from patent US20100261660A1 (published 2010).
# Biological target: T1, Soluble CTLA-4-Ig (extracellular domain of human CTLA-4 fused to the Fc portion of human IgG1) (human, UniProt P16410 36-161, FITC-conjugated in the FACS binding assays)
# T1 construct: extracellular domain; bought from R&D Systems; also called sCTLA-4-Ig; CTLA-4-Ig Fc; not shown: Fc portion of human IgG1
# Test: competitive FACS on transfected cells, FITC-sCTLA-4-Ig with biotin-sCD28-Ig; grade 0-2 of CTLA-4/CD28 ratio vs WT hB7-1
# T1 sequence (P16410 36-161): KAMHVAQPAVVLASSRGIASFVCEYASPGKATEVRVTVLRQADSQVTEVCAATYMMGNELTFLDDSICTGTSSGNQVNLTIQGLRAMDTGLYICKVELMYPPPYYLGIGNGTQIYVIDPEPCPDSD
row,Binding Score,Binder
1,0,Round 2 CTLA4BP 5x2-f3 (ligand) VIHVTKEVKEVATLSCGHNVSVEELAQTRIYWQKEKKMVLTMMPGDMNIWPEYKNRTIFDITNNLSIVILALRPSDEGTYECVVLRYEKDAFKREHLAEVTLSVKADFPTPSISDFEIPTSNIRRIICSTSGGFPEPHLSWLENGEELNAINTTASQDPETELYTVSSKLDFNMTTNRSFVCLIKYGHLRVNQTFNWNTPKQEHFPDNLLPSWAITLISANGIFVICCLTHCFAPRCRERKSNERLRRESVRPV
2,1,Round 2 CTLA4BP 5x5-h12 (ligand) VIHVTKKVKEVATLSCGHNVSVEELAQTRIHWQKEKKMVLTMMSGDMNIWPEYKNRTIFDITNNLSIVILALRPSDEGTYECVVLKYEKDAFKREHLAEVMLSVKADFPTPSISDFEIPPSNIRRIICSTSGGFPEPHLSWLENGEELNAINTTVSQDPGTELYTVSSKLDFNMTTDRSFVCLIKYGHLRVNQTFNWNTPKQEHFPDNLLPSWAITLISVNGIFVICCLTYCFAPRCRERRRNGRLRRESVRPV
3,2,Round 2 CTLA4BP 5x4-h1 (ligand) VIHVTKEVKEVATLSCGHNVSVEELAQTRIHWQKEKKMVLTMMSGDMNIWPEYKNRTIFDITNNLSIVILALRPSDEGTYECVVLKYEKDAFKRKHLAEVMLSVKADFPTPSISDFEIPTSNIRRIICSTSGGFPEPHLFWLENGEELNAINTTASQDPETELYTVSSKLDFNMTTNRSFVCLIKYGHLRVNQTFNWNTPKQEHFPNNLLPSWAITLISVNGIFVICCLTYCFAPRCRERRRNETLRRESVHPV
4,1,Round 2 CTLA4BP 5x9-d10 (ligand) VIHVTKEVKEVATLSCGLNVSVEELAQTRIYWQKGKKMVLTMMSGDMNIWPEYKNRTIFDITNNLSIVILALRPSDEGTYECVVLEYEKDAFKREHLAEVMLSVKADFPTPSISDFEIPPSNIRRIICSTSGGFPEPHLSWLENGEELNAINTTASQDPGTELYTVSSKLDFNMTTNHSFMCLIKYGHLRVNQTFNWNTPKQEHFPDNLLPSWAITLISVNGIFVICCLTHCFAPRCRERRRNERLRRESARPV
5,1,Round 2 CTLA4BP-5x2-7b (ligand) VIHVTKEVKEVATLSCGHNVSVEELAQTRIHWQKEKKMVLTMMSGDMNIWPEYKNRTIFDITNNLSIVILALRPSDEGTYECVVLKYEKDAFKREHLAEVTLSVKAGFPTPSITDFEIPPSNIRRIICSTSGGFPEPHLSWLENGEELNAINTTVSQDPGTELYTVSSKLDFNMTANHSFVCLIKYGHLRVNQTFNWNTPKQEHFPDNLLPSWAITLISANGIFVICCLTYCFAPRCRERRRNERLRRESVRPV
6,1,Round 2 CTLA4BP 5x3-e8 (ligand) VIHVTKEVKEVATLSCGHNVSVEELAQTRIYWQKEKKMVLTMMSGDMNIWPEYKNRTIFDITNNLSIVILALRPSDEGTYECVVLEYEKDAFKREHLAEVTLSVKADFPTPSISDFEIPTSNIRRIICSTSGGFPEPHLFWLENGEELNAINTTVSQDPETELYTVSSKLDFNMTANHSFVCLIKYGHLRVNQTFNWNTPKQEHFPDNLLPSWAITLISVNGIFVICCLTYCFAPGCRERRRNERLRRESVCPV
7,2,Round 2 CTLA4BP-5x2-2g (ligand) VIHVTKEVKEVATLSCGHNVSVEELAQTRIHWQKEKKMVLTMMSGDMNIWPEYKNRTIFDITNNLSIVILALRPSDEGTYECVVLKYEKDAFKREHLAEVMLSVKADFPTPSITDFEIPTSNIRRIICSTSGGFPEPHLSWLENGEELNAINTTVSQDPETELYTVSSKLDFNMTTNHSFMCLIKYGHLRVNQTFNWNTPKQEHFPDNLLPSWAITLISVNGIFVICCLTYRFAPRCRERKSNERLRRESVRPV
8,1,Round 2 CTLA4BP 5x5-c10 (ligand) VIHVTKEVKEVATLSCGHNVSVEELAQTRIYWQKEKKMVLTMMSGDMNIWPEYKNRTIFDITNNLSIVILALRPSDEGTYECVVLEYEKDAFKREHLAEVTLSVKADFPTPSITDFEIPPSNIRRIICSTSGGFPEPHLFWLENGEELNAISTTVSQDPETELYAVSSKLDFNMTTNHSFMCLIKYGHLRVNQTFNWNTTKQEHFPDNLLPSWAITLISVNGIFVICCLTYCFAPRCRERRRNERLRRESVHPV
9,1,Round 2 CTLA4BP 5x3-c4 (ligand) VIHVTKEVKEVATLSCGHNVSVEELAQTRIYWQKEKKMVLTMMSGDMNIWPEYKNRTIFDITNNLSIVILALRPSDEGTYECVVLKYEKDAFKREHLAEVTLSVKADFPTPSISDFEIPPSNIRRIICSTSGGFPEPRLAWMEDGEELNAINTTASQDPETELYTVSSKLDFNMTTNRSFVCLIKYGHLRVNQTFNWNTPKQEHFPDNLFPSWAITLISVNGIFVICCLTYCFAPRCRERRRNERLRRESVRPV
10,1,Round 2 CTLA4BP-5X2-12F (ligand) VIHVTKEVKEVATLSCGHNVSVEELAQTRIHWQKEKKMVLTMMSGDMNIWPEYKNRTIFDITNNLSIVILALRPSDEGTYECVVLKYEKDAFKREHLAEVTLSVKADFPTPSITDFEIPPSNIKRIICSTSGGFPEPHLSWLENGEELNAINTTVSQDPETELYTVSSKLDFNMTTNHSFMCLIKYGHLRVNQTFNWNTPKQEHFPDNPLPSWAITLISANGIFVICCLTYCFAPRCRERRRNETLRRESVRPV
11,1,Round 2 CTLA4BP-5x3-11b (ligand) VIHVTKEVKEVATLSCGHNVSVEELAQTRIYWQKEKKMVLTMMSGDMNIWPEYKNRTIFDITNNLSIVILALRSSDEGTYECVVLKYEKDAFKREHLAEVTLSVKADFPTPSITDFEIPPSNIRRIICSTSGGFPEPHLSWLENGEELNAISTTVSQDPETELYTVSSKLDFNMTTNRSFVCLIKYGHLRVNQTFNWNTPKQEHFPDNLLPSWAITLISVNGIFVICCLTYCFAPRCRERRSNERLRRESVRPV
12,2,Round 2 CTLA4BP-5x2-8c (ligand) VIHMTKEVKEVATLSCGHNVSVEELAQTRIYWQKEKKMVLTMMSGDMNIWPEYKNRTIFDITNNLSIVILALRPSDEGTYECVVLKYEKDAFKQEHLAEVMLSVKADFPTPSITDFEIPPSNIRRIICSTSGGFPEPHLFWLENGEELNAINTTVSQDPETELYAVSSKLDFNMTTNHSFVCLIKYGHLRVNQTFNWNTPKQEHFPDNLLPSWAITLISANGIFVICCLTYCFAPRCRERRRNERLRRESVHPV
13,1,Round 2 CTLA4BP 5x3-c3 (ligand) VIHMTKEVKEVATLSCGPNVSVEELAQTRIYWQKEKKMVLTMMSGDMNIWPEYKNRTIFDITNNLSIVILALRPSDEGTYECVVLKYEKDAFKREHLAEVTLSVKADFPTPSISDFEIPTSNIRRIICSTSGGFPEPHLSWLENGEELNAINTTVSQDPGTELYTVSSKLDFNMTTNHSFMCLIKYGHLRVNQTFNWNTPKQEHFPDNLLPSWAITLISVNGIFVICCLTHCFAPRCRERRRNERLRRESVCPV
14,2,Round 2 CTLA4BP-5x3-10e (ligand) VIHVTKEVKEVATLSCGHNVSVEELAQTRIYWQKEKKMVLTMMSGDMNIWPEYKNRTIFDITNNLSIVILALRPSDEGTYECVVLEYEKDAFKREHLAEVTLSVKADFPTPSISDFEIPPSNIRRIICSTSGGFPEPHLFWLENGEELNAINTTVSQDPETELYAVSSKLDFNMTTNHSFMCLIKYGHLRVNQTFNWNTPKQEHFPDNLLPSWAITLISANGIFVICCLTYCFAPRCRERKSNERLRRESVHPV
15,0,Round 2 CTLA4BP 5x4-a1 (ligand) VIHVTKEVKEVATLSCGHNVSVEELAQTRIYWQKEKKMVLTMMSGDMNIWPEHKNRTIFDITNNLSIVILALRPSDEGTYECVVLKYEKDAFKREHLAEVTLSVKADFPTPSITDFEIPTSNIRRIICSTSGGFPEPHLSWLENGEELNAINTTVSQDPGTELYTVSSKLDFNMTTNRSFVCLIKYGHLRVNQTFNWNTPKQEHFPDNLLPSWAITLISVNGIFVICCLTYCFAPRCRERRRNERLRRESVRPV
16,1,Round 2 CTLA4BP 5x6-f6 (ligand) VIHVTKEVKEVATLSCGHNVSVEELAQTPIYWQKEKKMVLTMMSGDMNIWPEYKNRTIFDITNNLSIVILALRPSDEGTYECVVLKYEKDAFKREHLAEVMLSVKADFPTPSITDFEIPPSNIRRIICSTSGGFPEPHLFWLENGEELNAINTTVSQDPETELYTVSSKLDFNMTTNRSFVCLIKYGHLRVNQTFNWNTPKQEHFPDNLLPSWAITLISANGIFVICCLTYRFAPRCRERRRNERLRRESVCPV
17,2,Round 2 CTLA4BP-5x3-6f (ligand) VIHVTKEVKEVATLSCGHNVSVEELAQTRIYWQKGKKMVLTMMSGDMNIWPEYKNRTIFDITNNLSIVILALRPSDEGTYECVVLEYEKDAFKREHLAEVMLSVKADFPTPSISDFEIPTSNIRRIICSTSGGFPEPHLSWLENGEELNAINTTASQDPETELYTVSSKLDFNMTTNHSFMCLIKYGHLRVNQTFNWNTPKQEHFPDNLLPSWAITLISANGIFVICCLAYCFAPGCRERKSNERLRRESVRPV
18,1,Round 2 CTLA4BP 5x2-h11 (ligand) VIHVTKKVKEVATLSCGHNVSVEELAQTRIYWQKGKKMVLTMMSGDMNIWPECKNRTIFDITNNLSIVILALRPSDEGTYECAVLKYEKDAFKREHLAEVTLSVKADFPTPSISDFEIPTSNIRRIICSTSGGFPEPHLFWLENGEELNAINTTASQDPETELYAVSSKLDFNMTTNHSFMCLIKYGHLRVNQTFNWNTPKQEHFPDNLLPSWAITLISVNGIFVICCLTYCFAPRCRERKSNERLRRESVRPV
19,1,Round 2 CTLA4BP-5x2-4c (ligand) VIHVTKEVKEVATLSCGLNVSVEELAQTRIYWQKEKKMVLTMMSGDMNIWPEYKNRTIFDITNNLSIVILALRPSDEGTYECVVLEYEKDAFKREHLAEVMLSVKADFPTPSISDFEIPPSNIRRIICSTSGGFPEPHLSWLENGEELNGINTTVSQDPETELYTVSSKLDFNMTTNRSFVCLIKYGHLRVNQTFNWNTPKQEHFPDNLLPSWAITLISVNGIFVICCLTYCFAPRCRERRRNERLRRESVHPV
20,2,Round 2 CTLA4BP-5x2-3c (ligand) VIHVTREVKEVATLSCGHNVSVEELAQTRIHWQKEKKMVLTMMSGDMNIWPEYKNRTIFDITNNLSIVILALRPSDEGTYECVVLKYEKDAFKREHLAEVMLSVKADFPTPSISDFEIPTSNIRRIICSTSGGFPEPHLSWLENGEELNAINTTVSQDPETGLYTVSSKLDFNMTTNHSFMCLIKYGHLRVNQTFNWNTPKQEHFPDNLLPSWAITLISVNGIFVICCLTYCFAPRCRERRRNERLRRESVCPV
